In the supplement of paper PMC10065799, “High-throughput profiling of sequence recognition by tyrosine kinases and SH2 domains using bacterial peptide display” (eLife, 2023):

Experiments:
AncSZ = experiment: phosphorylation enrichment, bacterial display (enrichment ratio); higher = better substrate or ligand; peptides without Tyr show the background
EPHB1 = EPHB1 (UniProt P54762); experiment: as above
EPHB2 = EPHB2 (UniProt P29323); experiment: as above
FGFR1 = FGFR1 (UniProt P11362); experiment: as above
Sequence of FGFR1 (P11362 whole entry, looked up): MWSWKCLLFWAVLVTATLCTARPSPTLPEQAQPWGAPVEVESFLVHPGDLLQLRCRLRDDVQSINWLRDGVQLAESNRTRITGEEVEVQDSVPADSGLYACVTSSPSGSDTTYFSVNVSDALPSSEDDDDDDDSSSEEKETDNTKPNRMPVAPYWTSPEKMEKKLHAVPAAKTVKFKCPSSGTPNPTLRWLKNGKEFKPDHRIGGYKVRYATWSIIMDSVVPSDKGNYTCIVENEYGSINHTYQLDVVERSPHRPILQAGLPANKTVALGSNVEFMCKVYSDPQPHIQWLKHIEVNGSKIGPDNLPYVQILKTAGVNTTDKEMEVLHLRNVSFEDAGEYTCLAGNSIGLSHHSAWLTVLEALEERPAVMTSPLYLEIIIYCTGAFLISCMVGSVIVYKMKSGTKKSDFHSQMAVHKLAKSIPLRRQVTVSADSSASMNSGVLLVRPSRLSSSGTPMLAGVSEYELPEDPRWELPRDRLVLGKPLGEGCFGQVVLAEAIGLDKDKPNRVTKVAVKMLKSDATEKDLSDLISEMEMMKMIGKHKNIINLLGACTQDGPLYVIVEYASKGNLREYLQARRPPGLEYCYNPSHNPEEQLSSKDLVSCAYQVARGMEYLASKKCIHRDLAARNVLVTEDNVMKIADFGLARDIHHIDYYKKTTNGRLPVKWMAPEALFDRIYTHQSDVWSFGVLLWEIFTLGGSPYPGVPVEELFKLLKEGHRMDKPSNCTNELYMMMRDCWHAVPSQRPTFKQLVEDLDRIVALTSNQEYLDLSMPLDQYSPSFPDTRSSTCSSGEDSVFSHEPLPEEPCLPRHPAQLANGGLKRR

FGFR3 = FGFR3 (UniProt P22607); experiment: as above
Sequence of FGFR3 (P22607 whole entry, looked up): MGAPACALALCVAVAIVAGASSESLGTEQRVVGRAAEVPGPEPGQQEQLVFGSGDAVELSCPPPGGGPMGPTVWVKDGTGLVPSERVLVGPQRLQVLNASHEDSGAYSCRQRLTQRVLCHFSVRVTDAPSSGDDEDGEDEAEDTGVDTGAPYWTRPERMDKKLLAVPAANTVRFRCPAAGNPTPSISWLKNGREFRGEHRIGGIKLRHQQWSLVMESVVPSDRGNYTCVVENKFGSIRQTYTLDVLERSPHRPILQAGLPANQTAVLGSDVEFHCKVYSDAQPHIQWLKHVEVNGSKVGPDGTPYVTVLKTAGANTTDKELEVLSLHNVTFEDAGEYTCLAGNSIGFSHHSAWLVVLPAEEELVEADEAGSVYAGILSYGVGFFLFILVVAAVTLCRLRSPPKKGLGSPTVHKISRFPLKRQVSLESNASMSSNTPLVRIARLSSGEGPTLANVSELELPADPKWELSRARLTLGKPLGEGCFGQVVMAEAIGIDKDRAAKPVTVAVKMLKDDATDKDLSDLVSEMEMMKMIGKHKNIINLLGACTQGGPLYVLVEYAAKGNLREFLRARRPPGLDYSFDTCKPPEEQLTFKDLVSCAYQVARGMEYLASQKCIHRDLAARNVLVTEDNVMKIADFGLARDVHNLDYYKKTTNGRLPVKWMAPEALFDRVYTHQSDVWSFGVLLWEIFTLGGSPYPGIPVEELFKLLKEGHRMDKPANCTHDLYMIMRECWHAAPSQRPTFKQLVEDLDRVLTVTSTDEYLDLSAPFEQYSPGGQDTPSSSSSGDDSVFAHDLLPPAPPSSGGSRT

Fer (mouse) = experiment: as above
Fes = Fes (UniProt P07332); experiment: as above
Sequence of Fes (P07332 whole entry, looked up): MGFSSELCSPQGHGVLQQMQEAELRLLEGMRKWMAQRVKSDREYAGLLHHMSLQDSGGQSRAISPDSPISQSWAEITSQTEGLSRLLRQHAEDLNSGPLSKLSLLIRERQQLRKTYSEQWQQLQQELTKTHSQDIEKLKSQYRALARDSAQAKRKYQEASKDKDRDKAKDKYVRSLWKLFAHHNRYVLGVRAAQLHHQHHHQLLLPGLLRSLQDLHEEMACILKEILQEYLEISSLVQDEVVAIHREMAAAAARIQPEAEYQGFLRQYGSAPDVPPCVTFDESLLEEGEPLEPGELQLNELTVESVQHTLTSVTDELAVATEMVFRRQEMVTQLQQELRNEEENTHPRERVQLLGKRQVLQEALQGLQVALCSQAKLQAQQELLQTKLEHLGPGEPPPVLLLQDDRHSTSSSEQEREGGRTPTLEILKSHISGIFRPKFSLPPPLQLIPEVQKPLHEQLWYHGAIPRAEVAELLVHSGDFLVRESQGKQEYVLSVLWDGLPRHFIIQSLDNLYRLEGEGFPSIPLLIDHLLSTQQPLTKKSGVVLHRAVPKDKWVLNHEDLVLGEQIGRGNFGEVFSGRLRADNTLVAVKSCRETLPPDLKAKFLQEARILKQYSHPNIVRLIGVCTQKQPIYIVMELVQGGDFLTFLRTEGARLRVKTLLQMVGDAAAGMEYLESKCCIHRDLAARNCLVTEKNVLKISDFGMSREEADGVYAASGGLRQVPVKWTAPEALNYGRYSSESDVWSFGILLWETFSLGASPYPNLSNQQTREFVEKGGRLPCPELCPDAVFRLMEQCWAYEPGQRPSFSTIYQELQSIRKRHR

Fyn = Fyn (UniProt P06241); experiment: as above
Sequence of Fyn (P06241 whole entry, looked up): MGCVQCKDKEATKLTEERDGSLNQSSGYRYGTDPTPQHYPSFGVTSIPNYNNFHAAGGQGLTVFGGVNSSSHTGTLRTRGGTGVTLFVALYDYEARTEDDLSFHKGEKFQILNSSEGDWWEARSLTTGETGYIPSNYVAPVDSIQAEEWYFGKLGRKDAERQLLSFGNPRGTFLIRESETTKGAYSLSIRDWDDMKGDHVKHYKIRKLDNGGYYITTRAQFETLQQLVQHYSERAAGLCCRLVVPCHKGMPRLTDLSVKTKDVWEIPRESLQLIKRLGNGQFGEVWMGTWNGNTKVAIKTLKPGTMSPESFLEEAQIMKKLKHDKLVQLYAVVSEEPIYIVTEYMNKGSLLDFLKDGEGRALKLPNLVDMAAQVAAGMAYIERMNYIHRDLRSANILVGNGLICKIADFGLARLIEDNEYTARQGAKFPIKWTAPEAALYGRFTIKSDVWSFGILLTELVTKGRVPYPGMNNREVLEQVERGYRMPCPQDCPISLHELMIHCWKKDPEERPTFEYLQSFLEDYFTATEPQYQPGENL

Hck = Hck (UniProt P08631); experiment: as above
Jak2 = Jak2 (UniProt O60674); experiment: as above
Sequence of Jak2 (O60674 whole entry, looked up): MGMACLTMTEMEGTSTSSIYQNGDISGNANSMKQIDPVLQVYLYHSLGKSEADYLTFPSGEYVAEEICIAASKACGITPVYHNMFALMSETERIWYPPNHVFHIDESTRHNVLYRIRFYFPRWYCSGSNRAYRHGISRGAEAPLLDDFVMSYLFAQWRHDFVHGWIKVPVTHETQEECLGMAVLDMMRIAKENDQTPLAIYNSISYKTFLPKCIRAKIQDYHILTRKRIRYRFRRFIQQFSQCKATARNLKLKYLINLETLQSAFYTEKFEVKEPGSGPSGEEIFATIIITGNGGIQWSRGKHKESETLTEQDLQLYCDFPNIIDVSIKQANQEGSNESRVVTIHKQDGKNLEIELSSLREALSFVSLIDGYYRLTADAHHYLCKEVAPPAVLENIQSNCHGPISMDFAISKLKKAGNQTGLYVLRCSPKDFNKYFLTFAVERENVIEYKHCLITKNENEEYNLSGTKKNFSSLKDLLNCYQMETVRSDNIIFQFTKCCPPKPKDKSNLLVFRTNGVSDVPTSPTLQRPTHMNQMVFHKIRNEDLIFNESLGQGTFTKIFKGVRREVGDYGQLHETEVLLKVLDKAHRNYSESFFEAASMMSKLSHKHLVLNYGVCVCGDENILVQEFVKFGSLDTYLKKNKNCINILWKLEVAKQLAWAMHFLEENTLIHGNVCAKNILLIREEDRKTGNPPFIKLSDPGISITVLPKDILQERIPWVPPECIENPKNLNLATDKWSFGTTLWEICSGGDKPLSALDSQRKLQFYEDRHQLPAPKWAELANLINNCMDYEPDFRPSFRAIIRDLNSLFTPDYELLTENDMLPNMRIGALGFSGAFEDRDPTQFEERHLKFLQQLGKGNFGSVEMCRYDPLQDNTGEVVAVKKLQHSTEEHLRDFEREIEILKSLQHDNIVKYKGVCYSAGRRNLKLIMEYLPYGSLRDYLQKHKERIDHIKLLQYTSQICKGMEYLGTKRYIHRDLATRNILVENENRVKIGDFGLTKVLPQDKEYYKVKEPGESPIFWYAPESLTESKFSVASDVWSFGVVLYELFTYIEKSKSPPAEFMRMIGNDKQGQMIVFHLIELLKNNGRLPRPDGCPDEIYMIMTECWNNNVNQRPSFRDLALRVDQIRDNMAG

MERTK = MERTK (UniProt Q12866); experiment: as above
c-Abl (mouse) = experiment: as above
c-Src = experiment: as above
Grb2 SH2 = Grb2 SH2 (UniProt P62993); experiment: SH2 binding enrichment of the phosphorylated peptide, bacterial display (enrichment ratio); higher = better substrate or ligand; peptides without Tyr show the background
SHP2-C SH2 = experiment: as above
c-Src SH2 = experiment: as above
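Throughout, for SH2 binding enrichment of the phosphorylated peptide, bacterial display: peptide library displayed on the E. coli surface as eCPX fusions, selected cells deep-sequenced, score is each peptide's frequency after selection divided by its frequency in the input.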
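Throughout, for phosphorylation enrichment, bacterial display: 11-residue human phosphosite peptides and single-mutation variants displayed on the E. coli surface, counted by deep sequencing, each peptide's frequency after selection divided by its frequency in the unselected input library; frequency after pTyr selection over input frequency; kinase dosed for 20-30% of maximal phosphorylation in three min.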

Sequence of EPHB1 (P54762 whole entry, looked up): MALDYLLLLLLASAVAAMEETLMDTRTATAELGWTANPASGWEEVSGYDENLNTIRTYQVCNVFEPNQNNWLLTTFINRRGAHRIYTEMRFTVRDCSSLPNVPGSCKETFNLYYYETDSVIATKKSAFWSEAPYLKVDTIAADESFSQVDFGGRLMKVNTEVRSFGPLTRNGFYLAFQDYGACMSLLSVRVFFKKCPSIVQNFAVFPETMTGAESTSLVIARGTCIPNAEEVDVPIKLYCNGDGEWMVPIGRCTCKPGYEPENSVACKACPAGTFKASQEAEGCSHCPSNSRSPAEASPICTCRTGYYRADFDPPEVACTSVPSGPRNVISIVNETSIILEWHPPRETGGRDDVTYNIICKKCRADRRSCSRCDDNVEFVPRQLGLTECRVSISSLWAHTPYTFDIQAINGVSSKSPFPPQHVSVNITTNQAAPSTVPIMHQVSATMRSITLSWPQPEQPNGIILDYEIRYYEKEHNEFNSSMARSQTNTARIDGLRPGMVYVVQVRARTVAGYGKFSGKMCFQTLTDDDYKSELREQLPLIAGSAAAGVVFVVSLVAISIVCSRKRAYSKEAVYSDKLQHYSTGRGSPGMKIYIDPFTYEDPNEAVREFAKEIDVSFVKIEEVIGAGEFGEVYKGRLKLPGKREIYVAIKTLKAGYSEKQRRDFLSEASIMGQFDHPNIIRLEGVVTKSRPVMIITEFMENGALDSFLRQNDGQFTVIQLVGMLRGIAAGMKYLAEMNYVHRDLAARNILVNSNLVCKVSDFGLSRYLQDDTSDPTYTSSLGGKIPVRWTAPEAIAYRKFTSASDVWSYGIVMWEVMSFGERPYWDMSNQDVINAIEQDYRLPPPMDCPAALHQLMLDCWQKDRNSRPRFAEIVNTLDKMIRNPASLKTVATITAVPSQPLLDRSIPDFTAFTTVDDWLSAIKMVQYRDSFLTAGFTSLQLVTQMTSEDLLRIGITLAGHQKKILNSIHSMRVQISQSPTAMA

Row | Sequence | SH2 binding enrichment (Grb2 SH2) | SH2 binding enrichment (SHP2-C SH2) | SH2 binding enrichment (c-Src SH2) | phosphorylation enrichment (AncSZ) | phosphorylation enrichment (EPHB1) | phosphorylation enrichment (EPHB2) | phosphorylation enrichment (FGFR1) | phosphorylation enrichment (FGFR3) | phosphorylation enrichment (Fer (mouse)) | phosphorylation enrichment (Fes) | phosphorylation enrichment (Fyn) | phosphorylation enrichment (Hck) | phosphorylation enrichment (Jak2) | phosphorylation enrichment (MERTK) | phosphorylation enrichment (c-Abl (mouse)) | phosphorylation enrichment (c-Src)
1 | GLRSFYETSKM [MAGED2_Y449_YF] | 0.933 | 0.771 | 0.582 | 0.596 | 0.438 | 0.342 | 0.385 | 0.42 | 0.505 | 0.739 | 0.331 | 0.506 | 0.707 | 0.374 | 0.806 | 0.437
2 | GMKIVYVFVKK [DNAI2_Y5_E2K_YF] | 1.18 | 1.21 | 0.677 | 1.2 | 0.59 | 0.538 | 0.433 | 0.706 | 0.416 | 1.14 | 0.463 | 0.428 | 1 | 1.06 | 0.863 | 0.394
3 | GNHVSYYQSDG [CACNA1C_Y1757] | 0.806 | 0.802 | 0.902 | 0.774 | 0.557 | 0.485 | 0.718 | 0.81 | 0.49 | 0.762 | 0.462 | 0.57 | 0.667 | 0.81 | 0.621 | 0.574
4 | GRERPYGGGGG [FUS_Y526_R521G] | 0.722 | 0.824 | 0.485 | 0.498 | 0.654 | 0.492 | 1.02 | 0.487 | 0.6 | 0.565 | 0.357 | 0.787 | 0.512 | 0.968 | 0.416 | 0.854
5 | GRVLGYGTFGK [FLT4_Y853_A855T] | 1.01 | 0.7 | 0.725 | 0.553 | 0.372 | 0.538 | 0.338 | 0.414 | 0.393 | 0.633 | 0.543 | 0.417 | 0.617 | 0.369 | 0.533 | 0.623
6 | GSPAPYRRRKR [MBD1_Y403_P401A] | 0.594 | 0.413 | 0.42 | 0.617 | 0.466 | 0.499 | 0.596 | 0.426 | 0.505 | 0.545 | 0.502 | 0.498 | 0.632 | 0.608 | 0.497 | 0.618
7 | GSSEDYLHMVH [NIPBL_Y247] | 0.743 | 0.556 | 0.465 | 0.978 | 0.475 | 0.473 | 1.07 | 1 | 0.416 | 0.874 | 0.423 | 0.449 | 0.874 | 0.485 | 0.646 | 0.524
8 | GTHCHYKAPTV [FZD9_Y569] | 1.25 | 0.913 | 1.3 | 0.648 | 0.421 | 0.39 | 0.493 | 0.51 | 0.505 | 0.79 | 0.442 | 0.429 | 0.667 | 0.442 | 3.71 | 0.485
9 | GTPVMYTYDEY [COL10A1_Y623] | 0.954 | 0.843 | 2.67 | 1.26 | 0.708 | 0.978 | 0.743 | 0.893 | 0.575 | 1.09 | 1.76 | 1.01 | 1.04 | 0.804 | 0.68 | 2.42
10 | HDKEFYSVHNK [MET_Y1235_Y1230H_YF] | 0.734 | 0.466 | 0.395 | 1.14 | 0.455 | 0.643 | 0.804 | 0.549 | 0.629 | 0.842 | 0.646 | 1.03 | 0.513 | 0.467 | 0.309 | 0.429

Continued, in another order:

Row | SH2 binding enrichment (Grb2 SH2) | SH2 binding enrichment (SHP2-C SH2) | SH2 binding enrichment (c-Src SH2) | Sequence | phosphorylation enrichment (AncSZ) | phosphorylation enrichment (EPHB1) | phosphorylation enrichment (EPHB2) | phosphorylation enrichment (FGFR1) | phosphorylation enrichment (FGFR3) | phosphorylation enrichment (Fer (mouse)) | phosphorylation enrichment (Fes) | phosphorylation enrichment (Fyn) | phosphorylation enrichment (Hck) | phosphorylation enrichment (Jak2) | phosphorylation enrichment (MERTK) | phosphorylation enrichment (c-Abl (mouse)) | phosphorylation enrichment (c-Src)
11 | 0.878 | 0.52 | 0.535 | GLIPAYHWVIM [NMNAT1_Y64_R66W] | 1.49 | 0.755 | 0.731 | 8.56 | 6.04 | 5.52 | 1.25 | 0.503 | 0.543 | 1.68 | 1.8 | 0.92 | 0.526
12 | 0.746 | 0.758 | 0.505 | GPSTPYTKSKR [SMARCC2_Y324] | 0.408 | 0.322 | 0.299 | 0.363 | 0.362 | 0.324 | 0.511 | 0.405 | 0.319 | 0.497 | 0.353 | 0.651 | 0.452
13 | 1.05 | 0.559 | 0.68 | GQETSYIEDNC [PAH_Y24] | 1.47 | 0.83 | 0.758 | 0.452 | 0.769 | 0.51 | 1.28 | 0.507 | 0.666 | 1.15 | 0.466 | 0.74 | 0.515
14 | 0.95 | 0.718 | 0.53 | GREYIYVDPMQ [PDGFRA_Y574_H570R] | 3.12 | 6.9 | 8.24 | 12.7 | 8.94 | 1.21 | 0.801 | 1.73 | 2.05 | 1.17 | 4.27 | 5.21 | 1.86
15 | 0.782 | 0.519 | 1.92 | GRRGQYVMPSE [TTC7A_Y396_L399P] | 0.586 | 0.356 | 0.481 | 0.433 | 0.394 | 0.39 | 0.557 | 0.415 | 0.41 | 0.323 | 0.465 | 0.482 | 0.41
16 | 0.831 | 1.25 | 2.54 | GYEEAYSVFKK [PAFAH1B1_Y28] | 1.35 | 0.498 | 0.605 | 0.491 | 0.681 | 0.339 | 0.947 | 2.37 | 4.07 | 0.754 | 0.654 | 1.96 | 4.68
17 | 1.34 | 0.793 | 0.619 | HAVFIYDICHV [TWNK_Y508_V507I_YF] | 1.19 | 3.04 | 3.98 | 0.54 | 0.956 | 4.14 | 1.56 | 3.92 | 2.59 | 1.26 | 3.24 | 1.89 | 2.49
